According to paper PMC11381329 (Nucleic Acids Research, 2024):

Molecular target: T1, GST-UTP13^1–320 (human, UniProt Q12788 1-320)
T1 sequence: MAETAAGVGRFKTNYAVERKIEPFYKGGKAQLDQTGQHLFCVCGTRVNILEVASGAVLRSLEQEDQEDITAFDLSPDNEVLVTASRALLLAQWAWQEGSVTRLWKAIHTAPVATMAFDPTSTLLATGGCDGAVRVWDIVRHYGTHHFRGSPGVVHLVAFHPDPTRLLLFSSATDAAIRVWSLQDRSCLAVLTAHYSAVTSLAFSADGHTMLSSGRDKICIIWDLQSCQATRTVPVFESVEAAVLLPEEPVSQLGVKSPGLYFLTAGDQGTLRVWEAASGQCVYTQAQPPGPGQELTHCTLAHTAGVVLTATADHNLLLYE
Test: pull-down

binding result: binds
B1: HIS-UTP3^1–319 (domain or fragment)
chain: MVGRSRRRGAAKWAAVRAKAGPTLTDENGDDLGLPPSPGDTSYYQDQVDDFHEARSRAALAKGWNEVQSGDEEDGEEEEEEVLALDMDDEDDEDGGNAGEEEEEENADDDGGSSVQSEAEASVDPSLSWGQRKKLYYDTDYGSKSRGRQSQQEAEEEEREEEEEAQIIQRRLAQALQEDDFGVAWVEAFAKPVPQVDEAETRVVKDLAKVSVKEKLKMLRKESPELLELIEDLKVKLTEVKDELEPLLELVEQGIIPPGKGSQYLRTKYNLYLNYCSNISFYLILKARRVPAHGHPVIERLVTYRNLINKLSVVDQKLS
